# Data taken from paper PMC10200060, “Inhibition of DAMP actions in the tumoral microenvironment using lactoferrin-glycyrrhizin conjugate for glioblastoma therapy” (Biomaterials Research, 2023).
# T1: human recombinant HMGB1 protein (Homo sapiens, UniProt P09429)
# T1 construct: purchased Abcam
# T1 sequence (P09429 1-215): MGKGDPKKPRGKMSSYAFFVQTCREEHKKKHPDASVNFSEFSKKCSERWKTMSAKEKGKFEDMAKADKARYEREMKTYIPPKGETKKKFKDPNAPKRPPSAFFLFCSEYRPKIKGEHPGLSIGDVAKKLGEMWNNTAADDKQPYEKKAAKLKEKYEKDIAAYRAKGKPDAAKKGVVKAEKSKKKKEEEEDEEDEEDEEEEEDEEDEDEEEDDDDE
# B1: Lf-GL: lactoferrin-glycyrrhizin conjugate with ligation ratio Lf:GL 1:10, used in further experiments (conjugate, UniProt P24627 20-708, looked up)
# Lactotransferrin: APRKNVRWCTISQPEWFKCRRWQWRMKKLGAPSITCVRRAFALECIRAIAEKKADAVTLDGGMVFEAGRDPYKLRPVAAEIYGTKESPQTHYYAVAVVKKGSNFQLDQLQGRKSCHTGLGRSAGWIIPMGILRPYLSWTESLEPLQGAVAKFFSASCVPCIDRQAYPNLCQLCKGEGENQCACSSREPYFGYSGAFKCLQDGAGDVAFVKETTVFENLPEKADRDQYELLCLNNSRAPVDAFKECHLAQVPSHAVVARSVDGKEDLIWKLLSKAQEKFGKNKSRSFQLFGSPPGQRDLLFKDSALGFLRIPSKVDSALYLGSRYLTTLKNLRETAEEVKARYTRVVWCAVGPEEQKKCQQWSQQSGQNVTCATASTTDDCIVLVLKGEADALNLDGGYIYTAGKCGLVPVLAENRKSSKHSSLDCVLRPTEGYLAVAVVKKANEGLTWNSLKDKKSCHTAVDRTAGWNIPMGLIVNQTGSCAFDEFFSQSCAPGADPKSRLCALCAGDDQGLDKCVPNSKEKYYGYTGAFRCLAEDVGDVAFVKNDTVWENTNGESTADWAKNLNREDFRLLCLDGTRKPVTEAQSCHLAVAPNHAVVSRSDRAAHVKQVLLHQQALFGKNGKNCPDKFCLFKSETKNLLFNDNTECLAKLGGRPTYEEYLGTEYVTAIANLKKCSTSPLLEACAFLTR
# modifications: glycyrrhizin conjugate
# Columns and labels:
# [1] = target: T1, human recombinant HMGB1 protein; assay: SPR binding affinity against HMGB1
# Method: To confirm the binding affinity of Lf-GL to HMGB1, Surface Plasmon Resonance (SPR) was conducted at WoojungBSC (Korea). The Reichert SR7500DC system (Reichert technologies, NA, USA) and Scrubber2 software (Biologic software, FRA) were used, and a CMDH chip (Cat #: 13,206,066, Reichert technologies) was used for immobilization of the human recombinant HMGB1 protein (Abcam). HMGB1 protein was used as a ligand, and the analytes were HMGB1 antibody (Abcam), GL, Lf and Lf-GL conjugate. The immobilization buffer was S.A. (10 × 10^–3 M, pH 4.5), and the running buffer was PBS (pH 7.4). The flow rate of the analyte was 30 μL min^−1. The association and dissociation time were 3 min each, and measurements were conducted at room temperature. Results are expressed in response units (RU) over time.
# Fig. S5. Binding affinity against HMGB1. Surface Plasmon Resonance (SPR) was conducted at WoojungBSC (Korea). The Reichert SR7500DC system (Reichert technologies, NA, USA) and Scrubber2 software(Biologic software, FRA) were used and the CMDH chip (Cat #: 13206066, Reichert technologies) was used for immobilization of the human recombinant HMGB1 protein (Abcam). HMGB1 protein was used as ligand and analytes were HMGB1 antibody (Abcam), GL, Lf and Lf-GL conjugate. Immobilization buffer was 10 mM S.A. (pH 4.5) and running buffer was 1× PBS. The flow rate of the analyte was 30 μL min^-1. The association and dissociation time were 3 min each and conducted at room temperature. Results are expressed in response units (RU) over time.
# HMGB1 = assay: Immunofluorescence staining of HMGB1 in GBM tissue; format: in vivo, Balb/c nude mice; conditions: GBM mice, daily i.v. GL equivalent 50 mg kg^−1, 14 days (control 15.3 ± 1.7)
# From the text: After two weeks, mice were sacrificed, and the brains were harvested and fixed with paraformaldehyde (4%). Then, tissue processing was automatically conducted using a Leica TP1020 semi-enclosed Benchtop Tissue Processor (Leica Biosystems, Wetzlar, Hesse, Germany), followed by embedding in paraffin blocks. Paraffin blocks were sliced into 5 μm thick slices using a Leica RM2145 Microtome (Leica Biosystems). Nissl staining was used to stain brain tissue slides with pre-warmed 0.1% Cresyl Violet Stain Solution (Abcam). TUNEL assays were conducted following the manufacturer’s instructions. For immunofluorescence staining; anti-HMGB1 antibody (Abcam), anti-Ki67 antibody (Abcam), anti-CD31 antibody (Abcam), and anti-VEGF antibody (Abcam) were used as primary antibodies, and goat anti-rabbit IgG-H&L Alexa Fluor 488 and goat anti-rabbit IgG H&L Alexa Fluor 647 were used as secondary antibodies, followed by DAPI mounting.
# [2] = SPR, HMGB1 immobilized, PBS pH 7.4, room temperature
molecule,measurement,setting,value
B1,"KD, equilibrium dissociation constant (KD = Kd Ka^−1)","[1]; SPR, HMGB1 immobilized",23.1 ± 0.1 nM
same,"Ka, association rate constant",[1]; [2],(2.64±0.01)·10^4 M^-1s^-1
same,"Kd, dissociation rate constant",[1]; [2],(3.11±0.02)·10^-4 M^-1s^-1
same,Affinity for HMGB1 higher than that of HMGB1 antibody,[1]; ratio of KD values,45 fold
same,Mean fluorescence intensity (MFI) of HMGB1,HMGB1,1.7 ± 1.0
